Patent publication US20040146896A1, “Methods and compositions for diagnosing and treating companion animal cancer” (priority 2002, published 2004)

Tests used:
Format in all cases: cell-based
[1] = tested on: U937 human tumor cells; test: Annexin V FACS apoptosis assay, U937
Description: 5. Annexin V apoptosis assay. ApoScreen Annexin V Apoptosis Kit (Cat. No. 10010-02, Southern Biotechnology Assoc. Inc.) was used for this assay. Annexin V detects the change in position of phosphatidy serine (PS) in the cell membrane. In non-apoptotic cells, most phosphatidyl serine molecules are at the inner layer of the plasma membrane. After inducing apoptosis, PS redistributes to the outer layer of the membrane. PS translocation precedes other apoptotic events allowing early detection of apoptosis. 1 ml of U937 cells (2×10^4) or any other types of cells and 1 ml of supernatant or other solutions containing apoptosis inducing agents (e.g. TRAIL) were used for assay in 6-well plate. After 48 hrs of incubation, cells were washed in 2 ml of cold PBS (Phosphate-buffered saline) and resuspended in 100 ul of cold 1× binding buffer. 10 ul of Annexin V-FITC was added to each tube and the tube was gently vortexed and subsequently incubated for 15 minutes in the dark at 4° C. 200 ul of cold 1× binding buffer was added to each tube and 10 ul-of PI was also added to each tube. The staining was then analyzed by flow cytometry.
U937 human tumor cells were grown in the presence or absence of TRAIL proteins produced from conditioned media of transfected 293 cells. The apoptosis of U937 cells induced by conditioned media was measured in this assay. […]

[2] = tested on: canine cell lines; test: Cell Death ELISA apoptosis assay, canine cell lines; conditions: 100 ng/ml (FIG. 20B and data not shown)
Protocol: (§1) 4. Cell Death Detection ELISA Plus assay for apoptosis. The assay is based on a quantitative sandwich-enzyme-immunoassay-principle using mouse monoclonal antibodies directed against DNA and histones, respectively. This allows the specific determination of mono- and oligonucleosomes in the cytoplasmatic fraction of cell lysates. Roche kit, Cat. # 1 774 425, was used for this assay. 0.1 ml of U937 or any other types of cells (2×104 ) and 0.1 ml of tissue culture supernatant or other solutions containing apoptosis inducing agents (e.g. TRAIL) were used for this assay in 48-well plate. After 24 or 48 hrs of incubation at 3 7° C., the cells were spun at 2,000 rpm for 10 minutes. Cell pellet was then resuspended in 200 ul lysis buffer and incubated for 30 minutes at room temperature. The cell lysate was then centrifuged at 2,000 rpm for 10 minutes and diluted at 1:10 with incubation buffer. 20 ul of diluted lysate was added to coated plate (MTP from kit) and 80 ul of the immunoreagent was added to each well. MTP was then covered with adhesive cover foil and incubated under gentle shaking for 2 hours at room temperature. The solution was then removed thoroughly by tapping and subsequently rinsed 3 times with 250 ul incubation buffer. 100 ul ABTS solution was added and incubated on a plate shaker at 250 rpm for 15 minutes. Readings at 405 nm and 490 nm (background) were done on ELISA reader.

[3] = tested on: U937 human tumor cells; test: Cell Death Detection ELISA apoptosis assay, U937
Protocol: as §1, with “reader. […]” for “reader.”

B1: human commercial TRAIL: human TRAIL (Upstate Biotechnology, 100 ng/ml), positive control (protein, UniProt P50591 1-281, looked up)
Tumor necrosis factor ligand …: MAMMEVQGGPSLGQTCVLIVIFTVLLQSLCVAVTYVYFTNELKQMQDKYSKSGIACFLKEDDSYWDPNDEESMNSPCWQVKWQLRQLVRKMILRTSEETISTVQEKQQNISPLVRERGPQRVAAHITGTRGRSNTLSSPNSKNEKALGRKINSWESSRSGHSFLSNLHLRNGELVIHEKGFYYIYSQTYFRFQEEIKENTKNDKQMVQYIYKYTSYPDPILLMKSARNSCWSKDAEYGLYSIYQGGIFELKENDRIFVSVTNEHLIDMDHEASFFGAFLVG
apoptosis of U937 cells ([1]; conditioned media of transfected 293 cells, background 15-20% (FIG. 9C)): 45% | apoptosis of U937 cells ([1]; experiment with bacteria expressed semi-purified TRAIL-Thio proteins (FIG. 12)): above 85% | effect on canine cell lines, in words [2]: very minimal | apoptosis specific cell death of U937 cells, times that of control ([3]; conditioned media of transfected 293 cells, two independent experiments (FIG. 9B)): 7 times that of control | induction of apoptosis of U937 cells, in words ([3]; mammalian expressed TRAIL supernatants, commercial human TRAIL and Fas ligand 100 ng/ml (FIGS. 19B, 20B, 21B)): induced potent apoptosis
